Key:
[1] = target: recombinant trimeric HA of A/New Caledonia/20/1999 (H1N1) (influenza A virus A/New Caledonia/20/1999 (H1N1)) (UniProt Q6WG00)
[2] = target: recombinant trimeric HA of A/Victoria/210/2009 (H3N2) (influenza A virus A/Victoria/210/2009 (H3N2))

Substance	HI activity, minimum HI concentration, NC20 virus [1] [µg/mL]	HI activity, minimum HI concentration, Vic210 virus [2] [µg/mL]	NT activity, minimum virus-neutralizing concentration, Vic210 virus [2] [µg/mL]
Fab-deficient (ΔFab) IgA1 monomer (domain or fragment)	> 500	794	> 500
Fab-deficient (ΔFab) IgA2m2 monomer (domain or fragment)	> 500	500	> 500
